This is an account of results in patent US20260176701A1 (BRIGHAM AND WOMEN S HOSPITAL, published 2026).

Test [1] has as its target T1, recombinant human ORF1p (LINE-1 open reading frame 1 protein, L1RP) (human, UniProt Q9UN81 1-338).
T1 construct: Expressed in E. coli, tag cleaved, monodisperse homotrimer; Immobilized on the CM5 chip in SPR; also called trimeric ORF1p
T1 sequence: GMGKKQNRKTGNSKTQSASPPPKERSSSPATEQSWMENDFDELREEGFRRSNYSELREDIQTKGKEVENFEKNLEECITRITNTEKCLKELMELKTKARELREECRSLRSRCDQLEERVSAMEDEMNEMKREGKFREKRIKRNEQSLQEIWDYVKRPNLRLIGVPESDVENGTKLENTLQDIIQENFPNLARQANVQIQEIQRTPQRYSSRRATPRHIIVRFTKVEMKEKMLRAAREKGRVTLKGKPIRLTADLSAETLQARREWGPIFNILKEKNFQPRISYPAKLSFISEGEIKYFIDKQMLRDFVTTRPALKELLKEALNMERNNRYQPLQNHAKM
Kind of test: ELISA screen of conditioned medium, then modified Simoa with Nb-5 or 4H1 beads and ORF1p. An excerpt: GenScript's MonoRab™ immunization and B cell cloning platform was used with purified, recombinant human ORF1p trimers. The 50 best-performing clones, determined by ELISA screening of the conditioned cell medium at multiple dilutions, were selected and used in a modified Simoa assay with two different detector beads (Nb-5, which is the C5 nanobody clone described above, or 4H1 (Sigma-Aldrich)). The ten best clones (62H12, 64C6, 33A8, 61A11, 36D12, 34H7, 50E9, 34C5, 55A6, and 42D10) all yielded up to 5-fold higher signal-to-noise than our best existing reagent, Ab6, (FIG. 13A).
(In general: An ELISA detects its analyte on a solid surface through an enzyme-linked reagent.)

For test [2], the target named is T1, recombinant human ORF1p (LINE-1 open …). The test can be described thus: Simoa sandwich calibration curves, panels titled capture/detector; AEB against recombinant ORF1p (axis 0.001-1000 pg/mL, log-log); dotted line = limit of detection.
Test [3] has the same target. Kind of test: Simoa sandwich, recombinant ORF1p at 40 pg/mL in diluent buffer, signal/background heat map; capture on the x axis, detector on the y axis. As for the experimental part:
ORF1p Simoa assays. Simoa assays were performed on an HD-X Analyzer (Quanterix Corp.), with all assay reagents and consumables loaded onto the instrument according to the manufacturer's instructions. 250,000 capture beads and 250,000 helper (non-conjugated) beads were used in each Simoa assay. A three-step assay configuration was used for the first- and second-generation assays, consisting of a 15-minute target capture step (incubation of capture beads with 100 μL sample), 5-minute incubation with detector reagent (0.3 μg/mL for both first- and second-generation assays), and 5-minute incubation with streptavidin-β-galactosidase (150 pM for first-generation assay; 300 pM for second-generation assays). The beads were washed with System Wash Buffer 1 (Quanterix Corp.) after each assay step. Upon the final wash cycle, the beads were loaded together with the fluorogenic enzyme substrate resorufin β-D-galactopyranoside into a 216,000-microwell array, which was subsequently sealed with oil. Automated imaging and counting of “on” and “off” wells and calculation of average enzyme per bead (AEB) were performed by the instrument. Calibration curves were fit using a 4PL fit with a 1/y² weighting factor, and the limit of detection (LOD) was determined as three standard deviations above the blank.
Signal/background was also determined for a number of the pairs by Simoa using recombinant ORF1p protein in diluent buffer; the results are shown in FIG. 15. When the rabbit monoclonal antibodies were used as capture and detector, the background was high. The best combinations were the rabbit monoclonal antibodies as capture/Ab6 detector; Nb5-5 capture/rabbit monoclonal antibodies detector; and 4H1 capture/rabbit monoclonal antibody detector pairs.

Test [4] shares this target. Kind of test: screen of cloned llama nanobody candidates for binding to ORF1p.

B1: 50E9 (antibody, V domains shown)
VH: QSVEESGGRLVTPGTPLTLTCTVSGFSLSRHYMSWVRQAPGKGLEWIGIIYDDDNRDHASWAKGRFTISRTSTTVDLKITSPTTEDTATYFCARVYASYGYALNLWGQGTLVIVSS
VL: ALVMTQTPPSVSAAVGGTVTINCQASESITNWLAWYQQKPGQPPKLLIYDASKLASGVSSRFSGSGSGTQFTLTISRVQCDDAATYYCQQGYTWNNIDNVFGGGTEVVVK
notes: Rabbit monoclonal antibody; also called 50E9-2
On to B1, for which the binding result in test [1] is “binds”.

B2: MT1037 (bispecific antibody)
nanobody concatemer: QVQLVESGGDLVQAGGSLRLSCAVSGGTSSNYGMGWFRQAPGKEREFVSSISWSGSRTLYSDSVKGRFTISRDNAKNTVDLQMNSLKPEDTAVYYCTAVREYRDYPQRDNFDYWGQGTQVTVSGGGGSGGGGSGGGGSGGGGSDAAARDAAARDAAARGGGGSGGGGSGGGGSGGGGSGSMAQVHLVESGGKLVQAGESLKLSCEVSGRTFSISGAGWFRQAPGKEREFVAAITWTGGYPYYDASVKGRFTISREDPDNTVYLSMNSLKPEDTAVYYCATRRAGDLDFSYAQQGRYDNWGQGTQVTVSCGSGRCGSGRCGSGRCGSGRC
modifications: biotinylated on the C-terminal cysteine residues when used as detector
notes: also called Nb5-Nb9-7Cys anti-ORF1 Nb dimer 12 (long linker v2); 5-9-cys(long2)
Turning to B2, the binding result in test [2] is given as “binds”.

B3: 61A11 (antibody, V domains shown)
VH: QSVEESGGRLVTPGTPLTLTCTVSGIDLSSYVMGWVRQAPGKGLDWIGMIDTHDDTYFAPWARGRFTISRTSSTTVDLKVASTTTEDTATYFCAGNLALWGRGTLVTVSS
VL: AQVLTQTPSPVSVAVGGTVTISCQSSQSVSSDNWLGWYQQKPGQPPKLLIYRASKLASGVSSRFKGSGSGTQFILTISDLECDDAATYYCAGGYSGSIIAFGGGTEVVVK
notes: Rabbit monoclonal antibody; also called 61A11-1
As for B3, the binding result in test [3] is “binds”.

B4: 62H12 (antibody, V domains shown)
VH: QSVKESGGRLVTPGTPLTLICTVSGFSLSRYAVGWVRQAPGKGLEWIGYIWSGGYTDYANWAKGRFTISKTSTTVDLKITSPTTEDTATYFCAREGDSDDYIYLNLWGPGTLVTVSS
VL: ALVMTQTPSSVSAAVGGTVTINCQASESISSYLAWYQQKSGQPPKLLIYRASTLASGVPSRFKGSGSGTEFTLTIGDLECADAATYYCQQGYTSFNVDKAFGGGTEVVVK
notes: Rabbit monoclonal antibody (GenScript MonoRab); also called 62H12-1; 62H2
As to B4, in test [3], the binding result is “binds”.

B5: MT1035 (bispecific antibody)
nanobody concatemer: QVQLVESGGDLVQAGGSLRLSCAVSGGTSSNYGMGWFRQAPGKEREFVSSISWSGSRTLYSDSVKGRFTISRDNAKNTVDLQMNSLKPEDTAVYYCTAVREYRDYPQRDNFDYWGQGTQVTVSGGGGSGGGGSGGGGSGGGGSDAAARDAAARDAAARGGGGSGGGGSGGGGSGGGGSMAQVQLVESGGDLVQAGGSLRLSCAVSGGTSSNYGMGWFRQAPGKEREFVSSISWSGSRTLYSDSVKGRFTISRDNAKNTVDLQMNSLKPEDTAVYYCTAVREYRDYPQRDNFDYWGQGTQVTVSCGSGRCGSGRCGSGRCGSGRC
modifications: biotinylated on the C-terminal cysteine residues when used as detector
notes: also called Nb5-Nb5-7Cys anti-ORF1 Nb dimer 10 (long linker v2); 5-5-cys(long2)
For the molecule B5, the binding result in test [2] was “binds”.

B6: anti-ORF1 Nanobody 1 (Nb1) (VHH)
VHH: DVQLVESGGGLVQAGESLRLSCAASGRTLSSLNMAWFRQVPGKERDFVSLISRSGSTDYVHSVRGRFTISRDNAKNTVYLEMNSLKPEDTAVYYCAADDNYNGRYPFRDEYEYWGQGTQVTVSH
notes: Llama nanobody
On to B6, for which, in test [4], the binding result is listed as “binds”.

B7: MT1032 (bispecific antibody)
nanobody concatemer: QVQLVESGGDLVQAGGSLRLSCAVSGGTSSNYGMGWFRQAPGKEREFVSSISWSGSRTLYSDSVKGRFTISRDNAKNTVDLQMNSLKPEDTAVYYCTAVREYRDYPQRDNFDYWGQGTQVTVSGGGGSGGGGSGGGGSGGGGSMAQVQLVESGGDLVQAGGSLRLSCAVSGGTSSNYGMGWFRQAPGKEREFVSSISWSGSRTLYSDSVKGRFTISRDNAKNTVDLQMNSLKPEDTAVYYCTAVREYRDYPQRDNFDYWGQGTQVTVSCGSGRCGSGRCGSGRCGSGRC
modifications: biotinylated on the C-terminal cysteine residues when used as detector
notes: also called Nb5-Nb5-7Cys anti-ORF1 Nb dimer 7 (short linker); Nb 5-5-cys (short)
B7: the binding result in test [2] was “binds”.

B8: MT1038 (other)
nanobody concatemer: QVHLVESGGKLVQAGESLKLSCEVSGRTFSISGAGWFRQAPGKEREFVAAITWTGGYPYYDASVKGRFTISREDPDNTVYLSMNSLKPEDTAVYYCATRRAGDLDFSYAQQGRYDNWGQGTQVTVSGGGGSGGGGSGGGGSGGGGSDAAARDAAARDAAARGGGGSGGGGSGGGGSGGGGSGSMAQVHLVESGGKLVQAGESLKLSCEVSGRTFSISGAGWFRQAPGKEREFVAAITWTGGYPYYDASVKGRFTISREDPDNTVYLSMNSLKPEDTAVYYCATRRAGDLDFSYAQQGRYDNWGQGTQVTVSCGSGRCGSGRCGSGRCGSGRC
modifications: biotinylated on the C-terminal cysteine residues when used as detector
notes: also called Nb9-Nb9-7Cys anti-ORF1 Nb dimer 13 (long linker v2); 9-9-cys(long2)
As for B8, the binding result in test [2] is given as “binds”.

B9: MT1036 (other)
nanobody concatemer: DVQLVESGGGLVQAGGSLRLSCAASGRTDDIYTMGWFRQGPGKEREFVAVISWSITRRSSITHYADSVKGRFTISGENAENTVYLQMNTLKPEDTAVYYCAAKTGYSGSMSSYQDYDSWGQGTQVTVSGGGGSGGGGSGGGGSGGGGSDAAARDAAARDAAARGGGGSGGGGSGGGGSGGGGSGSMAQVHLVESGGKLVQAGESLKLSCEVSGRTFSISGAGWFRQAPGKEREFVAAITWTGGYPYYDASVKGRFTISREDPDNTVYLSMNSLKPEDTAVYYCATRRAGDLDFSYAQQGRYDNWGQGTQVTVSCGSGRCGSGRCGSGRCGSGRC
modifications: biotinylated on the C-terminal cysteine residues when used as detector
notes: also called Nb2-Nb9-7Cys anti-ORF1 Nb dimer 11 (long linker v2); 2-9-cys(long2)
As to B9, the binding result in test [2] is given as “binds”.
